In US20100330095A1 (U3 PHARMA, published 2010):
Values belong to the binder of their own block, whether it stands above or below them.

Biological target: T1, human receptor tyrosine kinase AXL transcript variant 1 (human, UniProt P30530 26-894)
T1 construct: Overexpressed on RatI-AXL cl.2 and NIH3T3-AXL cl.7 fibroblasts (pLXSN-hAXL); endogenous on human cancer cell lines and HUVEC in the functional assays; also called hAXL; human AXL
T1 sequence: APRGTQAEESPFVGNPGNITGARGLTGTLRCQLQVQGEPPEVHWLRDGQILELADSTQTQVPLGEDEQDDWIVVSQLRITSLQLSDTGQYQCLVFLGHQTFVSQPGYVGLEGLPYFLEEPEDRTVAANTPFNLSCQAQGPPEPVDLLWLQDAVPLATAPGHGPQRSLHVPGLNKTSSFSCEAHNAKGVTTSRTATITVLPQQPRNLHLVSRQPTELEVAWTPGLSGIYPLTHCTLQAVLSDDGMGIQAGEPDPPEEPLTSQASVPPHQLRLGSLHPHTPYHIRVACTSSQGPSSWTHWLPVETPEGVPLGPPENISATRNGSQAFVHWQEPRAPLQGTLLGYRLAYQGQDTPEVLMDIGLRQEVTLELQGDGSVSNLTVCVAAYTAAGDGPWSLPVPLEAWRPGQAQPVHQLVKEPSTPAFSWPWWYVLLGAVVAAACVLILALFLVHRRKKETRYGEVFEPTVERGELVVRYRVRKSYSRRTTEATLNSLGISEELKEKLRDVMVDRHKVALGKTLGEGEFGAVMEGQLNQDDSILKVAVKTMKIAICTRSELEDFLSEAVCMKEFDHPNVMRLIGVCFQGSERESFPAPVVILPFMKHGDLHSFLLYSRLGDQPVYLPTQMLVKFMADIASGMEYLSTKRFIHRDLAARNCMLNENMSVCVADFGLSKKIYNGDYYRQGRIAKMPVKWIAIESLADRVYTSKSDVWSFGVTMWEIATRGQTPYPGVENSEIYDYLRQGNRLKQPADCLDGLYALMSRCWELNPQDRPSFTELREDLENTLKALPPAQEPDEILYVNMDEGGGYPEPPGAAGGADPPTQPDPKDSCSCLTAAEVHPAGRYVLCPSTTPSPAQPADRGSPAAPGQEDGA
Test: FACS Scatchard (apparent KD) on human AXL overexpressing NIH3T3 cells
Protocol: Human AXL overexpression NIH3T3 cells were harvested by incubation with 10 mM EDTA in PBS and resuspended at 6 million cells per ml in FACS buffer (PBS pH 7.4, 3% FCS, 0.1% NaN₃). […] Antibody binding was allowed to proceed for 2 hours on ice. Then, cells were washed twice with 250 μl FACS buffer per well, and resuspended in 200 μl of secondary antibody (anti-rat-PE; Jackson) diluted 1:50 in FACS buffer. After 45 minutes of incubation, cells were again washed twice in FACS buffer and resuspended in […] PBS for FACS analysis. Analysis was carried out on a Beckman-Coulter FACS FC500. To determine the apparent affinity constant KDapp, mean fluorescence values were plotted against the ratio of mean fluorescence and the corresponding antibody concentration ([M]).

- Kd: 0.6 nM
B1: ch11B7-IgG2 (antibody, V domains shown)
VH: EVQLQESGPGLVKPSQSLSLTCSVTGYSITSNYWGWIRKFPGDKMEWMGYITYSGSTSYNPSLKSRISITRDTSKNQFFLQLNSVTSEDTATYYCAITTFYYWGQGVMVTVSS
VL: DIQMTQAPSSLPASLGDRVTITCRASQDIGNYLRWFQQKPGKSPRLMISGATNLAAGVPSRFSGSRSGSDYSLTISSLESEDMADYYCLQSKESPWTFGGGTKLELKR
notes: chimeric rat/human IgG2 kappa, expressed in HEK 293 cells; also called chn11B7 IgG2

- Kd: 0.9 nM
B2: ch11D5-IgG2 (antibody, V domains shown)
VH: EVQLQESGPGLVKPSQSLSLTCSVTGYSITSNYWGWIRKFPGNKMEWIGHITNSGNTTYNPSLKSRISISRDTSRNQFFLQLNSVTTEDTATYYCAKGAFDYWGQGVMVTVSS
VL: DIQMTQSPSSMSTSLGDRVTITCRASQDIGNYLSWFQQKVGKSPRRMIYGAIKLAVGVPSRFSGSRSGSDYSLTISSLESEDMAIYYCLQYIQFPLTFGSGTKLELKR
notes: chimeric rat/human IgG2 kappa, expressed in HEK 293 cells; also called chn11D5 IgG2
